From the domain aggregation screens of Martell et al. (2025) come the findings set out here.

A value given as a limit tells only on which side of the number the result lay.

This series is described as follows: soluble fraction after stress (log2 fold change); higher = more stays soluble; pooled small domains, quantitative proteomics. The settings on record: stress: pH 4. In outline:
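Values are on a log2 scale, where higher means more of the domain stayed soluble after pH 4 stress. They are fold changes in the soluble amount of each domain from pooled custom libraries, measured by high-throughput quantitative proteomics. The fold change is taken to reflect aggregation propensity.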
In the case of “HMNDEFYAVVRESYAGYALVKPLDEDVGYDILSVSVKNLKVGDIIRLKVKNIKEIYPPEAEVLEVEVLQ”, the “soluble fraction (log2)” value was -1.59.

Regarding “HMNDEQFAIAKNDLLLSLYDGKEVNNSAAEYIIAWESLEKSPSDYISSQLKNTAESIIKISFD”, the “soluble fraction (log2)” value came out at 0.0518.

Regarding “HMNDFVTVPDLQGIFYSEAIKKIDKMGLKEGSIQFVNQDKFLPNTVLNQNPKEGTKVSQDSPINLIIS”, the “soluble fraction (log2)” value was -0.594.

In the case of “HMNDILETISNQIRDLRVSKKITQQELAERTNLSVPYISQIENGHRNISLETFIKIVDALDIPLSDFFLP”, the “soluble fraction (log2)” value is -1.11.

For “HMNDITVNVEDSKLIVTSNNPEKLPLYIMDIQGHILDKSEITAGTYSFPISDRGTYIVRIGENVYKVI”, the “soluble fraction (log2)” value was found to be 0.186.

With “HMNDLKVGELAKRGNVTAETVRHYTREGLLSPTRHPDNGYQLFSATDLERLHFIQRARKLGFSVAEIRDIL”, the “soluble fraction (log2)” value is -0.278.

Turning to “HMNDLVTWDRYKIELGDTLSEIAQKLVTRVDILKTVNQIQGTRIIAGNSLMVPRTTDTNVLTYL”, the “soluble fraction (log2)” value is -0.728.

Regarding “HMNDPIGDMLTRIRNAQMRGKSTVSTPASKLRAWVLEVLASEGYIRGFERATTDNGQGELVISLD”, the “soluble fraction (log2)” value is -0.253.

“HMNDREAAYEDLPDELVRVGQKVFIKSLETEGVIVQPPNKKGEVRVRSGNISTNVKRSDLGLPIEKP”: the “soluble fraction (log2)” value was determined as 0.149.

With “HMNDRRQDVFELLKSSERPVSAADLAHKFGVTRQVIVADIALLRASDIDIVSTNRGYILKANL”, the “soluble fraction (log2)” value is 0.0252.

For the sequence “HMNDYNLTDREKEVLTFLFQGLEYKEIGMKMSVSPNTIRNHISNIYKKLHVTSKTQAIRVFLNN”, the “soluble fraction (log2)” value is -0.0426.

With “HMNEAMIMIDLKGKSRDEAVKELDELNLKYRFTGNGIVKDQKPKAGEEINSDTVVEVELSEIK”, the “soluble fraction (log2)” value is -0.105.

In the case of “HMNEDYFTIAGYASLRGVNIDTSKANMLGRKATKLSREYGYDIGKVTDTRFGKVNSYHLDILKSIFEF”, the “soluble fraction (log2)” value is -0.646.

As for “HMNEFSYLSELGSEKGDLIKGLQLVQSREGYVSDDAIRAISKHFSIAEAEVEGVLTFYAQFK”, the “soluble fraction (log2)” value was -1.25.

Take “HMNEIESFSNTKNPFSLTFKTSKDSSYKVEASSNLKKWTTLSQIKGTGNPITFTESRRILFRKQYYRVTLS”: the “soluble fraction (log2)” value was found to be 0.102.

Turning to “HMNEISFYPNPAKESLTVKGLSEITSYSISDINGKLIQYGTTFDRINLEKLTKGFYFLTIGNTISKKLIV”, the “soluble fraction (log2)” value was -0.0595.

“HMNEISLKEITIEEDHPWRDKKIKELDLKEHILVAMIRRKDQDIIPNGETKIYKDDILVIYD”: the “soluble fraction (log2)” value was -1.73.

Take “HMNEKFNVYPIPVYNNLNITGLSKPVTYLISSIDGKTIKNGVFQESIDVSDLKSGLYFLQVETKDPVKFIK”: the “soluble fraction (log2)” value was -0.999.

“HMNEKLNEYLNQVKAYLNTSDNKEDIIKELEAVVLEKAEKKYGQITDESISKILSEFGSPAEVAKEYS”: the “soluble fraction (log2)” value was -0.103.

For the sequence “HMNEKLRNYIDTLFEHAPTTVRAVELKEEMFQNLTDKYNDLIAQGKSEEAAFNIAVASIGDVDSLIAGLS”, the “soluble fraction (log2)” value is -0.459.

As to “HMNELGSLIKRKREELGLSQEELARILGYKHKSSINKIELGLADVPRTKVPAFAKALGMTPVEFS”, the “soluble fraction (log2)” value was 0.063.

Turning to “HMNELPSVIIMKNGRTRPYELQEISKDEEWLNQTIREHGIEPKDIFIAEFWDGRTAFILNDGRIVK”, the “soluble fraction (log2)” value was -1.14.

On to “HMNERIKSLRKALGLTQQEFADKLGISRGNIGAYEVGKNAPSDAVISLIVRIFNTNENWLRTGEGEM”, for which the “soluble fraction (log2)” value was -0.246.

As for “HMNETSRTRALNILGLKATATQEDIKKAYRSLAKEYHPDKLVGVSEGVKKISEEKFREINEAYEYLI”, the “soluble fraction (log2)” value was -0.00502.

Take “HMNEVIIKNWSNAVGRNIKIKTKRGRPIFGRLLAINDQQLTIASKYMRGNATITVAREDVVSMSVS”: the “soluble fraction (log2)” value was found to be 0.22.

Regarding “HMNEVRINTAHIEHKYLGEVKVLDIQEMRNARGRDADPLAFLAIRFWSPRGVLVRVKDSRDATPYWLIS”, the “soluble fraction (log2)” value is -0.227.

Consider “HMNEYHRNISDEEFVRDIKETAIKLKKETLTGVEYSQNGKYHASTIIHRFGSWKKALELAELNTK”, for which the “soluble fraction (log2)” value was found to be 0.257.

Consider “HMNFNYPVIVKNSRINVSGVLSAAKLYTINGQLLQSYKGSGEFTSKTLTKGIYILQVDNARTKVLV”, for which the “soluble fraction (log2)” value was no less than 0.43.

Turning to “HMNFSKEYILVHSYKEIDILDALIVKYEATLVNREFDLFINSYIKINEDYAKLFRDEIISKTSGSMSIKEL”, the “soluble fraction (log2)” value is -2.12.

“HMNFTKHPENPNFVVYRFTDPERANSFRAELIANNISFEEDTEKKKQLIYTLFAIHTKYYNQSMQINIK”: the “soluble fraction (log2)” value was -0.0767.

On to “HMNFTVTDKNAVLYSNDNTKVYESPDINSKLVTTIAKDLPVNVTGITSNGWFRISLEGTYYVPGNGLEQR”, for which the “soluble fraction (log2)” value is -0.251.

As to “HMNGADPYEQLGVTRDASDDELKAAHRKLSRENHPDTLMAKGMPPEFIEQANDKMARINAAWDQIRKERGI”, the “soluble fraction (log2)” value stood at 0.124.

For the sequence “HMNGAITLRVRPSDEGKRLDVFVVSQLTGYTRSFVAGLIGDRHFLVNGQPKKPGYRIKSSDTISGVIPAPA”, the “soluble fraction (log2)” value worked out at 0.157.

With “HMNGARALAGAIAEAIRKQVYRVNERLPAERELASHYDVSRGTLRSALALLEQEGLVTRKVGSGTFVMPP”, the “soluble fraction (log2)” value stood at 0.161.

On to “HMNGNLRAQVLELMGRADYEPLNKSELSRKLDLQGSDRSSLRILMDELERDHSVVRLKKGRFALKVV”, for which the “soluble fraction (log2)” value is 0.0349.

For the sequence “HMNGQFIELKNTTGTIIEARVLSFQNGKVKLQRNDGLIFVASISIFDSESIEVIKQKVAEISESKKS”, the “soluble fraction (log2)” value is -0.0246.

Regarding “HMNGQITPSRAKEIALGHAGVSEGSANFKKIKLDNKNGRPAYEIEFIANNSRYEFEINASNGSIIKFNK”, the “soluble fraction (log2)” value is -0.0812.

Turning to “HMNGYGALVRLGRSRGWVTVEEINDHLPESAVRTAENVQEITEALGRLSIKVFETRPDEDDLLIT”, the “soluble fraction (log2)” value is -0.613.

For “HMNHGDATTETQAEIMAILSDMKPHPITELNTIKRPYEQIDTALTYLINEEKIYRMDGMIFIG”, the “soluble fraction (log2)” value was -0.915.

Regarding “HMNHYTEEYILKRMKDFFTTHAYITRRDIESLFGFRRSYATKWLKHFRESGVLKQSGPVNSAVYLL”, the “soluble fraction (log2)” value is -1.12.

For “HMNIAESIRKYRKASGLTQEEMAKRLGVTTPAVSKWENGITNPDIALLAPIARLFHISVDTLLSYR”, the “soluble fraction (log2)” value worked out at 0.0976.

Turning to “HMNIDKLVGSTGTVVRSVTPDTAGLVRVNDEDWRASAEEILYERDAIVVEGIEGVTLIVSKLS”, the “soluble fraction (log2)” value was -1.54.

On to “HMNIETHIVPKLLAPIRLQEYGVGIFNNIPTKSALKKALKKQLITVDKTVATTATFIKGGETIELAYQ”, for which the “soluble fraction (log2)” value was -0.299.

On to “HMNIGEKIKTLRENNNISIEELAEKINDSIENILKYENNELEPTLDKKLALSIALGVTLSDLS”, for which the “soluble fraction (log2)” value is -0.975.

Regarding “HMNIGELINKKRTELGLTLEEVGNAVGVSKSTVKKWEDGFISNMRRDKISKLAKVLEMNPVSLITGE”, the “soluble fraction (log2)” value is -0.0212.

With “HMNIGSKLRYLIEEANITQRQLADALHISPSALNGYINQGKEPDYATLVRIADYFHTSTDYLLGHSNIR”, the “soluble fraction (log2)” value is -0.202.

Take “HMNIIATHTVPAIEQKIRLQEYAISIFPQINSRSALKKAIAKKLVLLDGERASTADWIQPGQKIELLEDK”: the “soluble fraction (log2)” value is -0.274.

“HMNILAPFWERFGLSAFAAGNYDRAEGYFRKLEQKDPNSMSVLRNLGLILMAKGDAEGAEAYLLREEKL”: the “soluble fraction (log2)” value is -0.643.

For “HMNILKKDKRLWDENNLNKPLLFELLENYDKEIFELLLTDKDIKAKFFVQAGESYVFKYDDFRFAIEQN”, the “soluble fraction (log2)” value is -1.75.

For “HMNIMAQDWISSPMGPISFKSNQHGLVKIGWGEVPRENTEQPNLEFTRKWLVDYFEGKASPLPYF”, the “soluble fraction (log2)” value is -1.55.
